Measurements published in patent US20250376535A1 (BEIJING STARMAB BIOMED TECHNOLOGY, published 2025).

B1: pgEG5 (VHH, not shown: small tags and cut ends)
VHH: QVQLVESGGGLVQPGGSLRLSCTASHNIFSDNAMAWSRQAPGAQRELVARIATGGNTYYPDSVKGRFTISRDNAKNTVYLQMNNLTPDDTAVYYCYAERWTGLEYSRTYWGQGTQVTVSS
B2: pgEG-SX3 (VHH, not shown: small tags and cut ends)
VHH: QVQLVESGGGLVQAGGSLRLSCVVYGSIFASTTMGWYRQAPGKQRELVATVYQSGTSVYADSVKGRFTASRDNAKKTVYLQMNSLKPEDTAVYYCHPRATDYWGRGTQVTVSS
B3: pgEG-SX6 (VHH, not shown: small tags and cut ends)
VHH: QVQLVESGGGTVQAGGSLRLSCVASGMREDIFDMGWYRQAPGLQRELVATITSGGSTDYADSVKGRFTISRDNTENTLNLQMNMLKPEDTAVYYCNALYFPPSGGRSSEFWGQGTLVTVSS
B4: pgEG-SX22 (VHH, not shown: small tags and cut ends)
VHH: QVQLVESGGGLVQAGGSLRVSCAVSGGALSAYAMAWFRQAPGKEREFVAGLNWGGDETYYADSAKGRFTISKDNAKNTVSLQMNSLEPEDTAVYYCGGRPGPLLSRATGYKYWGQGTQVTVSS
B5: pgEG-SX40 (VHH, not shown: small tags and cut ends)
VHH: QVQLVESGGGLVQAGGSLRLSCTGSGIRFSFYTLGWYRQAPGKQRELVAEIYSSDNAKYEDSVKGRFAISRDNAKNSVSLQMNSLKPEDTAVYYCNVRATDYWGPGTQVTVSS
B6: pgEG-SX57 (VHH, not shown: small tags and cut ends)
VHH: QVQLVESGGGLVQAGGSLRLSCAGARSIFSIKPMTWYRQAPGKERELVAWFTSGDSPNYADSVKGRFTISRDSAKNTVYLQMNNLKPEDTAVYYCNAVPPLGRWGQGTLVTVSS
B7: Humanized MSA4-1 (VHH)
VHH: EVQLVESGGGLVQPGGSLRLSCAASGRTDSAYRMGWFRQAPGKEREFVSAINWSDGRTVYLDSVKGRFTISRDNAKNTLYLQMNSLRAEDTAVYYCAADPDSRLYYTVPQNYDYWGQGTQVTVSS
notes: Humanization of MSA4 based on human germline IGHV3-23*04; also called hMSA4-1; not shown: His tag (BLI used HIS tagged MSA VHHs)

Key:
EGFR Fc [1] = target: T1, EGFR Fc (human, UniProt P00533 25-645); test: blocking ELISA, EGFR-hFc + VHH at 0.32 nM on coated EGF-mFc
T1 construct: also called EGFR-hFc; recombinant human EGFR-Fc
Procedure: (§1) After incubation at 4° C. overnight, the plate was washed four times of PBST and blocked with 200 μl per well of 2% BSA for one hour at room temperature. […] The plate was washed twice with PBST, and the pre-mixed samples were added to the 96-well plate shaking at 60 rpm for one hour at room temperature. After four washes of PBST, the plate was incubated with detecting antibody anti-his-HRP (1:4000 dilution) 100 μl per well for one hour with shaking at 60 rpm. The plate was washed with four times of PBST and added 100 μl per well of substrate TMB followed by 50 μl of stop solution.

EGFR Fc [2] = target: T1, EGFR Fc; test: ELISA, EGFR Fc coated, VHH at 0.08 nM
Procedure: (§2) After four rounds of washing with PBST, the plate was incubated with detecting antibody anti-his-HRP (1:4000 dilution) 100 μl per well for one hour with shaking at 60 rpm. The plate was developed with 100 μL of TMB per well in the dark and then stopped by 50 μL of stop solution per well. […] Data was analyzed using GraphPad Prisma 9.1.

EGFR Fc [3] = target: T1, EGFR Fc; test: ELISA, EGFR Fc coated, VHH at 2 nM
Procedure: as §2

EGFR Fc [4] = target: T1, EGFR Fc; test: blocking ELISA, EGFR-hFc + VHH at 1.6 nM on coated EGF-mFc
Procedure: as §1

EGFR Fc [5] = target: T1, EGFR Fc; test: ELISA, EGFR Fc coated
Procedure: as §2

EGFR Fc [6] = target: T1, EGFR Fc; test: ELISA, EGFR Fc coated, VHH at 50 nM
Procedure: as §2

EGFR Fc [7] = target: T1, EGFR Fc; test: blocking ELISA, EGFR-hFc + VHH at 0 nM on coated EGF-mFc
Procedure: as §1

EGFR Fc [8] = target: T1, EGFR Fc; test: ELISA, EGFR Fc coated, VHH at 0.0032 nM
Procedure: as §2

EGFR Fc [9] = target: T1, EGFR Fc; test: blocking ELISA, EGFR-hFc + VHH at 1000 nM on coated EGF-mFc
Procedure: as §1

EGFR Fc [10] = target: T1, EGFR Fc; test: ELISA, EGFR Fc coated, VHH at 10 nM
Procedure: as §2

EGFR Fc [11] = target: T1, EGFR Fc; test: blocking ELISA, EGFR-hFc + VHH at 200 nM on coated EGF-mFc
Procedure: as §1

EGFR Fc [12] = target: T1, EGFR Fc; test: blocking ELISA, EGFR-hFc + VHH at 8 nM on coated EGF-mFc
Procedure: as §1

[13] = target: T2, EGFR (recombinant human, BLI antigen) (human, UniProt P00533 25-645); test: BLI (Octet) as in Example 1
T2 construct: also called rh-EGFR; human EGFR

EGFR Fc [14] = target: T1, EGFR Fc; test: blocking ELISA, EGFR-hFc + VHH at 40 nM on coated EGF-mFc
Procedure: as §1

EGFR Fc [15] = target: T1, EGFR Fc; test: ELISA, EGFR Fc coated, VHH at 500 nM
Procedure: as §2

EGFR Fc [16] = target: T1, EGFR Fc; test: ELISA, EGFR Fc coated, VHH at 0.4 nM
Procedure: as §2

EGFR Fc [17] = target: T1, EGFR Fc; test: ELISA, EGFR Fc coated, VHH at 0.016 nM
Procedure: as §2

EGFR Fc [18] = target: T1, EGFR Fc; test: blocking ELISA, EGFR-hFc + VHH at 0.064 nM on coated EGF-mFc
Procedure: as §1

[19] = target: T2, EGFR (recombinant human, BLI antigen); test: BLI (Octet) as in Example 1; printed under the head Kdis(1/s), read as kon
[20] = target: T2, EGFR (recombinant human, BLI antigen); test: BLI (Octet) as in Example 1; printed under the head Kon(1/Ms), read as koff
human serum albumin = target: T3, human serum albumin (human, UniProt P02768 25-609); test: BLI (Gator), His-tagged VHH on anti-His sensor, HSA 100 nM in solution
T3 construct: also called HSA
Procedure: (§3) Kinetic binding analysis of MSA VHHs were performed with Gator Prime system equipped with analyze software. […] The experiments were done at 30° C. Prior to analysis, sensors were socked in Q buffer for 600 sec with shaking at 1000 rpm, and then 2 μM of HIS tagged MSA VHHs were loaded to Anti-His sensors with shaking at 400 rpm for 120 sec. Loaded sensors were transferred into Q buffer for 60 sec. Association of HSA or MSA at 100 nM was initiated and monitored for 120-180 sec with shaking at 1000 rpm, and finally dissociation in Q buffer for 120-180 sec with 1000 rpm shaking. Software V2.0 (Gator Bio) was used for data analysis. The on-rate (Kₒₙ) and off-rate (Kd) were determined by fitting of the association and dissociation phases of each sample. The mathematical model used assumes a 1:1 stoichiometry, fitting only one analyte in solution binding to one binding site on the surface. The equilibrium dissociation constant (KD), a measure for affinity, was then calculated as the ratio of Kd and Kₒₙ.

murine serum albumin = target: T4, murine serum albumin (murine, UniProt P07724 25-608); test: BLI (Gator), His-tagged VHH on anti-His sensor, murine serum albumin 100 nM in solution
T4 construct: As antigen 'MSA' means murine serum albumin; the VHHs also carry the label MSA; also called MSA
Procedure: as §3

Binder | OD450 (EGFR Fc [1]) | OD450 (EGFR Fc [2]) | OD450 (EGFR Fc [3]) | OD450 (EGFR Fc [4]) | EC50 (EGFR Fc [5]) [nM] | OD450 (EGFR Fc [6]) | OD450 (EGFR Fc [7]) | OD450 (EGFR Fc [8]) | OD450 (EGFR Fc [9]) | OD450 (EGFR Fc [10]) | OD450 (EGFR Fc [11]) | OD450 (EGFR Fc [12]) | Kd [13] [nM] | OD450 (EGFR Fc [14]) | OD450 (EGFR Fc [15]) | OD450 (EGFR Fc [16]) | OD450 (EGFR Fc [17]) | OD450 (EGFR Fc [18]) | kon [19] [M⁻¹ s⁻¹] | koff [20] [s⁻¹] | further results
B1 | 1.16 | 0.34 | 2.23 | 1.18 | 0.426 | 2.33 | 1.2 | 0.119 | 1.22 | 2.35 | 1.2 | 1.07 | 10.8 | 1.11 | 2.52 | 1.2 | 0.147 | 1.15 | – | – | koff [13]: 0.00134 s⁻¹; kon [13]: 124000 M⁻¹ s⁻¹
B2 | 0.806 | 0.373 | 0.843 | 0.723 | 0.382 | 1.21 | 1.06 | 0.086 | 0.336 | 0.994 | 0.382 | 0.562 | 0.602 | 0.482 | 1.47 | 0.762 | 0.134 | 0.979 | 457000 | 0.000275 | –
B3 | 1.07 | 0.496 | 1.83 | 0.928 | 0.12 | 1.15 | 1.04 | 0.082 | 0.646 | 1 | 0.668 | 0.757 | 0.798 | 0.606 | 1.37 | 1.16 | 0.139 | 0.956 | 500000 | 0.000399 | –
B4 | 0.955 | 1.43 | 1.88 | 0.864 | 0.0072 | 1.78 | 1.07 | 0.304 | 0.96 | 1.94 | 0.903 | 0.736 | 0.464 | 0.801 | 2.16 | 1.72 | 0.871 | 0.983 | 602000 | 0.00028 | –
B5 | 1.03 | 0.25 | 0.626 | 0.922 | 0.769 | 0.786 | 1.14 | 0.121 | 0.151 | 0.715 | 0.147 | 0.633 | 1.13 | 0.414 | 0.963 | 0.461 | 0.144 | 1.06 | 358000 | 0.000406 | –
B6 | 1.08 | 2.37 | 2.79 | 0.919 | 0.022 | 2.46 | 1.11 | 0.648 | 0.15 | 2.54 | 0.158 | 0.649 | 1.87 | 0.433 | 2.61 | 2.67 | 1.33 | 1.14 | 381000 | 0.000715 | –
B7 | – | – | – | – | – | – | – | – | – | – | – | – | – | – | – | – | – | – | – | – | Kd (human serum albumin): 5.38 nM; koff (human serum albumin): 0.000545 s⁻¹; kon (human serum albumin): 101000 M⁻¹ s⁻¹; Kd (murine serum albumin): 5.58 nM; koff (murine serum albumin): 0.000678 s⁻¹; kon (murine serum albumin): 121000 M⁻¹ s⁻¹
